# Results reported in the DeepSol protein solubility set.
# Assay: soluble on expression in E. coli; label from the status in PepcDB or PDB records
row,Sequence,soluble on expression in E. coli
1,SFGVIQKEERFNEVFLNYFKENKIEIAHAITKLFPFLESLRDHSFITDKIYADSYEACRNSVPIVKVVYNVLSHLERLSDSSFLWALFNRVNLKEYPALREIHKSLGTELQDRYSPQKCKQEEQKLATVHPSYEQGTNLCTHEKWAQPCFVKQDNLQEPEIQQNQVDEIIVISSESSECSDEDEEDQALGTGLRRQMNKEAEDSAPHRRSRT,soluble
2,MGSDKIHHHHHHMTERNSQDIGIQARFAEAEALGAHVYVLAAPLHNGSLPGALSVRRDHVACMLDGGADVQAVSPHLIYIPPSHFESARGWLERHGPASPCATILASPLPLAALAEHLKSFLRVCLPDGEPIVLAYWDPAILATLVGSAEDETLFVKGPVLSGEQRQAFLAPILRWTYWDRKGALRQIDWRQDRMPASAATLKPPLKLDQGQVDALTEASVPDGLLQHFSEHAPELLADVPERDRYGFVCRQIARARQHGIEGPGAWMDYCALAMRHGEAFDSHPDGVALLRTILPTASDRFSAS,not soluble
3,MISKRPDIYTQHDKAFSAVSAYVVLNSANERVATVALKFPCDGAGRLYAYVHWVGLEMVRGWAGGYGYDKRSAACASAARRIAIGNLTGDEWTNRRHEATAFVEALEKDSGEDWTRQLEAAGFKVFQAV,not soluble
4,MEMTMEQEPLNGWPQPYRLLDAQPYWDALQDEKLTYQQCVACRQSVWPAHSRCPHCSSDQLVWQASSGRATVYSFSTVTRGPTPVWASIVPYTVGFVEMDEGYFLFTQIEGPPGSIGVGDKVQVRFVRRGAQILPVFVSADLPA,not soluble
5,MDAELLEIYNFLAKYPPFNELPEETLTKVTESVEISYYRQDTPIIHFGDHIQDLFVVRSGVVEVYRRKGELYNRLDEGDLFGQMGLLTNNKVRFPVKAIEDTLLYCIPVEVFQEIYDNFDSFADFVEVENSARLRQTISENKDANDLTTSKVKTLLTGDAPTINRGQTIQQAAQLMAQDNISSLLIVDPDFVLDEDDPQSPVLGIITDRDLCTRVLAEGLSPQDDVSTVMTTEVISLDHNAYIYEAMLTMLRYNVHHLPVVKNQLPIGIIETTDIVRYESQNSLLLVSSIFQQQSIEDLATVAEEVKSSFVRLVNEDANSHMVGSAMSVIGRSFKQRLLELAEEELGAPPIPYCFLALGSMGRDEQLLVTDQDNAIILDESYQEEKHGKYFEDLAKFVSDGLDACGYKYCTGDIMATNPMWRMTRSEWEECFADWIDDPNPKALLNASIFFDLDGVYGRLKWAEQLTSFIVRRARKNNRFLACLARNALNRTPPLGFFKDFVMEKDGQHKNSINLKRRGTAPLVDLIRVHALAVGSRAQNSFERLDDIIDAGILPKGRAQDLKDALEFISMVRIRHQATDVELGIEPDNNIEPENLSDFERRNLKDAFQILSNGQNFLKFRYQANKSFK,not soluble
6,MRDPEFWHNKWAANQIGFHLEDVNPLLIRFWSDLAPKRSEKVLVPLCGKSEDLIWLANQHDSVQGVELSQIAVRSFFAEHFYTPTVTRLNAQHELYQFDELTLFTGDFFTAPVESVDLVYDRAALVALPEEMRAEYAQRVLQLLKPGGRILLVSMDYVQTELSGPPFSVPEAEIRTLFMGCEVRRVYQDTSIDPHLNKRTQAGLSRFAEEVWVIEKSE,not soluble
7,MLMATMTPWYLYLIRTADNALYTGITTDVARRYRQHQTGKGAKALRGKGELTLAFAAQVGDRSLALRIEYRIKQLTKRQKERLVTEREAFEALLSSLQTPVLKND,not soluble
8,MAHHHHHHMADQNPDLKVEEALKGADIKLLLIDFDGTLFVDKDIKVPSENIDAIKEAIEKGYMVSICTGRSKVGILSAFGEENLKKMNFYGMPGVYINGTIVYDQIGYTLLDETIETDVYAELISYLVEKNLVNQTIFHRGESNYVTEDNKYADFLQKMYSENRSIIIRHNEMLKYRTMNKLMIVLDPSESKTVIGNLKQKFKNKLTIFTTYNGHAEVTKLGHDKYTGINYLLKHYNISNDQVLVVGDAENDIAMLSNFKYSFAVANATDSAKSHAKCVLPVSHREGAVAYLLKKVFDLKK,soluble
9,MSFEQTLEKYAALAVNVGVNIQPGQTLSISAPLEAVQFVRLVTEKAYKSGAKHVYVDWNDETLTRLKFDLAPEEAFAEFPSWKAHAREELAKEGAAFMSIYAENPDLLKGVEASRIATAHKVAGEAMKVYRDYVQADKVSWCVISVPTKEWAAKVFPDVAPEEQEAKLWDAIFKATRADLENPVEAWKEHDETLHTKVDYLNEKHYKALHYTGPGTDLTIELPEKHVWAGAGSLNEKNVPFMANIPTEEVFTMPLKTGVNGQVSSTKPLVFAGNIIDNFTLTFENGRIVDYKAEAGEEALKHLVETDEGSHFLGEVALVPHDSPISNTNVLFYNTLFDENASCHLAIGNAYAFNLVGGKTMSKEELAENGANASITHNDFMIGSAELDIDGITADGRHEPIFRKGNWAF,not soluble
10,MSLTIKNSLGQSHDYIKMFVKEGDTVVDATCGNGNDTAFLASLVGENGRVFGFDIQDKAIANTTKKLTDLNLIDRVTLIKDGHQNMDKYIDCPVKAVMFNLGYLPSGDHSISTRPETTIQALSKAMELLVTGGIITVVIYYGGDTGFEEKEKVLEFLKGVDQKKFIVQRTDFINQANCPPILVCIEKISEGHHHHHH,soluble
11,MHHHHHHSSGVDLGTENLYFQSMTTSLEALPTGTVLTDKSGRQWKLKSFQTRDNQGILYEAAPTSTLTCDSGPQKQKFSLKLDAKDGRLFNEQNFFQRAAKPLQVNKWKKLYSTPLLAIPTCMGFGVHQDKYRFLVLPSLGRSLQSALDVSPKHVLSERSVLQVACRLLDALEFLHENEYVHGNVTAENIFVDPEDQSQVTLAGYGFAFRYCPSGKHVAYVEGSRSPHEGDLEFISMDLHKGCGPSRRSDLQSLGYCMLKWLYGFLPWTNCLPNTEDIMKQKQKFVDKPGPFVGPCGHWIRPSETLQKYLKVVMALTYEEKPPYAMLRNNLEALLQDLRVSPYDPIGLPMVP,soluble
12,MKKTKIVALSMMNSQTSGNPSRGTTKFESYTFDYWQYIDTLVYWGGSSGEGIIVTPSADVIDEAHSNGVPVLGTIFLPPKEYGGKVDWVKTMLKKDEQGQYPFASQMVKVAKTYGFEGWFINEETQGLNADDAANMKALIQQVKKEDSSLQIMWYDAMTKDGKVDWQNQLNDQNATFVQDKAADAMFLNFWWTQNNLADQKLLEKSNLYAKNHNIDPYNIYAGIDVQAKDVQTPVKWNLLEKGNQATQTSIGLYAASATYTNASNWDDFQNRESAFWVNQKADPRQVDHSVNESWTGLSKYVLEKSAISGNEFNTNFNLGNGYNYFKAGQKISEMDWNDRSLAGILPSYRWIIDNEGKNKISPSFDFANAYNGGNSLKFMAEHLDAGKSSNITLFASDLKIAMGAKFSVSMRSDQALKVSAILELANGQKVSIAGDKSLTENWSKLEHHHHHH,not soluble
13,MLELYHRKKLFNLLKAPLKKKPFFFIYNTKQTYRDKTPMRNIDFSKLHLSEDVRANEKVHNKRNLFMSNKIIHYLPPKRHD,not soluble
14,MGSDKIHHHHHHVDGSTMIARNDDTFLPLTPQRFYVHPAEKNQPKRTWVSNQNGFTAPIPSDGYRYLATPNVEVDKEGVYAESGFNEKNVAMSATESVYGNPAALAIDPLVQNGLAEDSLQTMVLPYINSARDGVRYLGQLIKQYGSPEGNGVLFSDHDEVWYMEIVTGHHWVAQRIPDDAYAITANQVAIQQVSFDDPDNFMFSDGIQDFVTENHLNPDQAGWNFRHIFGTDTEKDRHYNTPRVWFGQRYLNPEIEQDPQSSDLPFICRTSHKISVEDVEYILSSHYNETKYDPFGQGAEADRLKFRPISMNRTQNSHVLQLRNDVPADRSAIFWLCFGVPAFSPYVPFFANVTDTDPTYSDTPVRLDDQSAYWMYRKLSMIVESHYSHFIEQDTDYLTATKQQLRTHVAKTLADAAALTGDELTAYLTAQNHQIVAAMRQSTTQFTNELIEKGLTLSKLTFNMDKNL,not soluble
15,MGSDKIHHHHHHMLGKTAGGLYWLFRYLERSENTARLIETGFRIALTRPDGSDDEWRSVLQTAAVRDLYEGLYGEVEQAKAIDFLLRDRANPSSILSSISEARQNARLTRTALTREVWEAINDAYMNLKELLAHPVSAKTLPGTLATIRQHSALVRGAMHGTMLRTDIFDFCRLGTFIERADNTARILDVKYYVLLPSMTQVGSDLDNVQWETILRAVASHRSYRWLMGGETTPKGIADFLVFDTRMPRSLRFTVKKMASNLEYLAENYGQRHACHDQMDVLLARLKHGTIDEVFDDGLHEFLTEFLLDIGALGAQIESDYRFLG,not soluble
16,MAKGIPYGISDFSRLIDQNYYYVDKTHFIPQIEEIANYLFLIRPRRFGKSVFLTMMRAYYDISQKDRFEERFGNLWIGKHPTPLQGIYQVLYFDFSKANLGRGSLEDNFNNYCCIQLNDFFSTYREYYQGEKELEQIIASTEAATKLHWLEATARRLGHLLYLIIDEYDNFTNVILSEQGKNLFRDLTHASGFYREYFKQFKGMFERIFLMGVSPVTLDDLSSGYNIDWNISVDPHFNMMMGFSETDVREMFGYYQKEGMLKGDIDAMINEMKPWYDNYCFAEASLKTDPRMFNCDMTLYYLRHRVNFDASPKELIDKNIRTDYSKLKMLARLDHENVSGEDRMSTIEEIAAKGEILVNLHTSFPAEKIVETDNFRSLLYYYGLLTMCGTRGDRIVMCIPNNCVREQYFGFLREYYQQRKEVFLPHLKDLIDDMAFDGQWRPLFEYIALAYKENSAIRDAIEGEHNLQGFFKAYLALASYYLVQPELEMNYGYCDFFLLPDKSRYPDTAHSYILELKYLPRTATDKELEEQAEEGRGQLKQYSRDKKVTTISEGTALHCILLQFKGWELIKCEEVSPKC,not soluble
17,MGSDKIHHHHHHMHIRKYDHDYSRRFFMEQAAKGIATAGVLGPLWPMIANSADITKAYPDELMSIDAWSKGKIKTGDFITAENVDIVKDLLDPVAYQEVKTMGRRIRIVPTTKDVTRMFPHEYLEATLRNQGKAKFDAGGNIVSPDGKPWIGGNPFPDAKTGVEVAANLTLCWGRHDNSIYAIRDWEIAPDGSQSYQYDFAWVEENSVARAQAKSFPGGEDKLRYQAVFFTSPVDVKGTSYLSTWYYDQRKFPDLSGYLPAFKRVRKFPTNQRFEPLVAGVNFYLSDAWASGDPMLTWGNYKIVGRGPMLGAQSQTWYGDHPNWERPVHGGPKGITFFDTNMELCPDVVVFEAEPVGYPRAPVSKKRVWVDTRNMMFVAYVTYDRRGDLFKSFEPQFSLYEKGDKKLMDGSHTAWSWTAVTCHNIQDGRMTRFLQTKSIAGGVSQGYNVEGTFDKYLTEQALQRLGT,not soluble
18,MDFSGKNVWVTGAGKGIGYATALAFVEAGAKVTGFDQAFTQEQYPFATEVMDVADAAQVAQVCQRLLAETERLDALVNAAGILRMGATDQLSKEDWQQTFAVNVGGAFNLFQQTMNQFRRQRGGAIVTVASDAAHTPRIGMSAYGASKAALKSLALSVGLELAGSGVRCNVVSPGSTDTDMQRTLWVSDDAEEQRIRGFGEQFKLGIPLGKIARPQEIANTILFLASDLASHITLQDIVVDGGSTLGA,soluble
19,EVQLQASGGGSVQAGQSLRLSCATSGATSSSNCMGWFRQAPGKEREGVAVIDTGRGNTAYADSVQGRLTISLDNAKNTLYLQMNSLKPEDTAMYYCAADTSTWYRGYCGTNPNYFSYWGQGTQVTVSSRGRHHHHHH,soluble
20,MEKVAFIGLGAMGYPMAGHLARRFPTLVWNRTFEKALRHQEEFGSEAVPLERVAEARVIFTCLPTTREVYEVAEALYPYLREGTYWVDATSGEPEASRRLAERLREKGVTYLDAPVSGGTSGAEAGTLTVMLGGPEEAVERVRPFLAYAKKVVHVGPVGAGHAVKAINNALLAVNLWAAGEGLLALVKQGVSAEKALEVINASSGRSNATENLIPQRVLTRAFPKTFALGLLVKDLGIAMGVLDGEKAPSPLLRLAREVYEMAKRELGPDADHVEALRLLERWGGVEIR,soluble
